# Reference: patent US20220088195A1, “Prevention or mitigation of T-cell bispecific antibody-related adverse effects” (Hoffmann-La Roche Inc., priority 2020, published 2022)
# Tested on: MKN45 NLR target cells
# Test: Reversibility killing assay with two and three stimulations (OFF/ON, ON/OFF/ON), MKN45 NLR + CEA-TCB, Incucyte
# Type: cell-based, human
# Settings: 1 nM CEA-TCB, no dasatinib
# Experimental: FIG. 16. In vitro killing assay set-up and timelines. PBMCs were stimulated on MKN45 NLR (E:T=10:1) target cells with 1 nM CEA-TCB for 96 hours. Activated PBMCs were washed and restimulated on new MKN45 NLR target cells (E:T=10:1) with 1 nM CEA-TCB in the presence of 25 nM dasatinib for 72 hours. Activated PBMCs were washed to remove dasatinib and restimulated on new MKN45 NLR target cells (E:T=10:1) with 1 nM CEA-TCB (“ON/OFF/ON”, see upper row of table), or vice versa (“OFF/ON/OFF”, see lower row of table). Killing was followed by Incucyte®.
# FIG. 17. Real time killing of MKN45 NLR target cells by CEA-TCB in the presence of 25 nM dasatinib (0-72 h) upon first stimulation and in the absence of 25 nM dasatinib (96-170 h) upon restimulation, in the assay of FIG. 16 (“OFF/ON”).
# FIG. 19. Real time killing of MKN45 NLR target cells by CEA-TCB in the assay of FIG. 16 (“ON/OFF/ON”).
# FIG. 21. CEA-TCB mediated target cell killing. (A) PBMCs were stimulated on MKN45 NLR (E:T=10:1) target cells with 1 nM CEA-TCB for 96 hours in the presence and absence of dasatinib. (B) Activated PBMCs were washed to remove dasatinib and restimulated on new MKN45 NLR target cells (E:T=10:1) with 1 nM CEA-TCB. Killing was followed by Incucyte®.
# We then verified if dasatinib's effect is reversible upon its removal. Therefore we set-up a killing assay with two and three stimulations in the presence and absence of dasatinib and followed the killing kinetics using an Incucyte® system (FIG. 16). After each stimulation, effector cells were washed and re-stimulated on fresh MKN45 NLR target cells with 1 nM CEA TCB in the presence and absence of dasatinib allowing to mimic OFF/ON switch and ON/OFF/ON switch.
# Lastly, we evaluated if the effect of dasatinib was reversible on activated T cells. Consequently, we supplemented the media with 25 nM dasatinib upon the second stimulation with 1 nM CEA-TCB to prevent killing from activated T cells and then removed the dasatinib upon third stimulation with 1 nM CEA-TCB to verify if killing would be restored. […] We concluded that the effect of dasatinib in the prevention of T cell activation and cytotoxicity is reversible.
# For T-cell engaging antibodies, cytokine release peaks are higher upon the first treatment than after subsequent treatments. We were curious to see if low doses of dasatinib could prevent cytokine release while minimally affecting TCB-efficacy upon first stimulation. In killing assays as described in FIG. 16, the cytokine levels upon first treatment with 1 nM CEA-TCB in the presence of 6.25 nM and 12.5 nM dasatinib and upon second treatment with 1 nM CEA-TCB in the absence of dasatinib were measured in the supernatants. […] Its removal upon second stimulation may also balance the cytokine release and restore TCB-induced cytotoxicity due to the reversibility properties of dasatinib.
molecule,measurement,value
"CEA-TCB: T cell bispecific antibody binding CEA and CD3 (SEQ ID NOs 28-47) (antibody, chains of the INN, looked up, V domains shown) VH: QVQLVQSGAEVKKPGASVKVSCKASGYTFTEFGMNWVRQAPGQGLEWMGWINTKTGEATYVEEFKGRVTFTTDTSTSTAYMELRSLRSDDTAVYYCARWDFAYYVEAMDYWGQGTTVTVSS VL: DIQMTQSPSSLSASVGDRVTITCKASAAVGTYVAWYQQKPGKAPKLLIYSASYRKRGVPSRFSGSGSGTDFTLTISSLQPEDFATYYCHQYYTYPLFTFGQGTKLEIK VH2: QVQLVQSGAEVKKPGASVKVSCKASGYTFTEFGMNWVRQAPGQGLEWMGWINTKTGEATYVEEFKGRVTFTTDTSTSTAYMELRSLRSDDTAVYYCARWDFAYYVEAMDYWGQGTTVTVSS VL2: QAVVTQEPSLTVSPGGTVTLTCGSSTGAVTTSNYANWVQEKPGQAFRGLIGGTNKRAPGTPARFSGSLLGGKAALTLSGAQPEDEAEYYCALWYSNLWVFGGGTKLTVL",killing of MKN45 cells after first stimulation,triggered the killing
